Source: patent US20170189508A1 (IMMATICS BIOTECHNOLOGIES, published 2017)
Where two headings read alike, the source gives them in different places.

Columns and labels:
HLA-A*02 [1] = biological target: HLA-A*02 (human)
HLA-A*02 [2] = biological target: HLA-A*02 (human); assay: as the table's title states

Binder | binding result (HLA-A*02 [1]) | binding result (HLA-A*02 [2])
KLQNIMMLL [KLQNIMMLL (SEQ ID NO: 230)] | binds | –
KIIDFLSAL [KIIDFLSAL (SEQ ID NO: 235)] | binds | –
AILAHLNTV [AILAHLNTV (SEQ ID NO: 229)] | binds | –
RLMEENWNA [RLMEENWNA (SEQ ID NO: 27)] | – | binds
